Series [1] deals with rabbit muscle actin, polymerized (F-actin) (rabbit, UniProt P68135 1-377). The series is described as follows: co-sedimentation.
Series [2] concerns the molecule itself. The series can be described thus: SEC. In general terms: In gel filtration, larger molecules generally elute earlier.

B1: NtWLIM2–His (recombinant tobacco LIM protein WLIM2, 6xHis-tagged) (natural protein, Nicotiana tabacum (tobacco), UniProt P93356 1-189, looked up)
chain: MSFIGTQQKCKACEKTVYPVELLSADGVNYHKSCFKCSHCKGTLKLSNFSSMEGVLYCKPHFEQLFKESGNFNKNFQSPAKSAEKLTPELTRSPSKAAGMFSGTQEKCATCGKTAYPLEKVTVENQSYHKTCFKCSHGGCSLSPSNYAALNGILYCKPHFSQLFKEKGSYNHLIKSASMKRPAATVPDS
On to B1, for which the equilibrium dissociation constant (Kd) in series [1] came to 1830 nM. Besides, in series [2], the “stoichiometry N” value is 2.

The Kd is the free concentration of one partner at which half of the binding sites on the other are occupied at equilibrium, for simple one-to-one binding. The low end stands for higher affinity, the high end for lower affinity. In general, stoichiometry N refers to the number of molecules, sites or subunits per partner or assembly.

The values are drawn from PMC3603003 (Molecular Plant, 2012).
